From EP4725966A1 (SHANGHAI RUOTUO BIOSCIENCES CO., LTD., dated 2024) come the findings set out here.

Experiment [1] concerns the target T1, human HER3-ECD-His (human, UniProt P21860 20-643).
T1 construct: extracellular domain; Fusion protein of the extracellular domain of human HER3 and a His tag; also called hHER3-ECD-His; human HER3 extracellular domain protein; not shown: His tag
In words: Octet (BLI).

The target in experiment [2] is T2, cynomolgus HER3-ECD-His (cynomolgus monkey, UniProt G7PIG5 20-643).
T2 construct: extracellular domain; Bought protein (Sino Biological); also called Cyno HER3-ECD-His; Cyno HER3; not shown: His tag
Description: Octet (BLI).

Experiment [3] has as its target T1, human HER3-ECD-His. In words: Octet (BLI). The source holds these as a separate data set.
Experiment [4] addresses T2, cynomolgus HER3-ECD-His. Description: Octet (BLI). This is another data set of the same source.
The target of experiment [5] is T3, cynomolgus HER3 on CHO cells (cynomolgus monkey, UniProt G7PIG5 20-1342).
T3 construct: whole, on cells; also called CHO cells overexpressing cynomolgus HER3; CHO cells overexpressing cynomolgus monkey HER3
Description: FACS on CHO cells overexpressing cynomolgus HER3.

The target of experiment [6] is T1, human HER3-ECD-His. Description: Octet (BLI). This is another data set of the same source.
For experiment [7], the target named is T2, cynomolgus HER3-ECD-His. Description: Octet (BLI). This is another data set of the same source.
The target in the next experiment is T4, Human EGFR-ECD-His (human, UniProt P00533 25-645).
T4 construct: extracellular domain; not shown: His tag
In words: ELISA on coated Human EGFR-ECD-His, antibody 25 nM to 0.011 nM.

Another experiment has as its target T5, Human HER2-ECD-His (human, UniProt P04626 23-652).
T5 construct: extracellular domain; not shown: His tag
Description: ELISA on coated Human HER2-ECD-His, antibody 25 nM to 0.011 nM.

The target in a further experiment is T6, Human HER4-ECD-His (human, UniProt Q15303 26-651).
T6 construct: extracellular domain; not shown: His tag
T6 sequence (looked up): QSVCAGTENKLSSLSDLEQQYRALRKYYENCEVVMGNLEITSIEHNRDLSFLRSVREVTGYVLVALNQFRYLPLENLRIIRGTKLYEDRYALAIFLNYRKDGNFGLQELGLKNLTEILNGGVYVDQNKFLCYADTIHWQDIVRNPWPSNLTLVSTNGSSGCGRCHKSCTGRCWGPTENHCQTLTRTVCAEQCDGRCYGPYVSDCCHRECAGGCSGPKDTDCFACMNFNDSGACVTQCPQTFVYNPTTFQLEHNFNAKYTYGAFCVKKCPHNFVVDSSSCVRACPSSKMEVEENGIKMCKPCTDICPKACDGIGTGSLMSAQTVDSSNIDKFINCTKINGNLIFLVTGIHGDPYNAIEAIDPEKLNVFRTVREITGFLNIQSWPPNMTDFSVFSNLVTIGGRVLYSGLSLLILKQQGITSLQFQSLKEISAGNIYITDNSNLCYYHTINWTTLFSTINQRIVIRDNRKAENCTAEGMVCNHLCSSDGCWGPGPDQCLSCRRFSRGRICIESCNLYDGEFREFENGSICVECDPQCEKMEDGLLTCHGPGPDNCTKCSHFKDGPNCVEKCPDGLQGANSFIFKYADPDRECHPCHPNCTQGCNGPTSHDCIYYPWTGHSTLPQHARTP
In words: ELISA on coated Human HER4-ECD-His, antibody 25 nM to 0.011 nM.

The next experiment has as its target T7, human HER3 on cells (human, UniProt P21860 20-1342).
T7 construct: whole, on cells; also called Human HER3-CHO; CHO cells overexpressing human HER3
Description: fluorescence imaging of HER3-overexpressing A375 cells, 100 nM, 0 hour.

Positions count from the first letter of the chain named. Numbers in names are those of the source. Like-named read-outs stand apart in the source and are kept apart here.

T2 sequence (G7PIG5 entry or part of it): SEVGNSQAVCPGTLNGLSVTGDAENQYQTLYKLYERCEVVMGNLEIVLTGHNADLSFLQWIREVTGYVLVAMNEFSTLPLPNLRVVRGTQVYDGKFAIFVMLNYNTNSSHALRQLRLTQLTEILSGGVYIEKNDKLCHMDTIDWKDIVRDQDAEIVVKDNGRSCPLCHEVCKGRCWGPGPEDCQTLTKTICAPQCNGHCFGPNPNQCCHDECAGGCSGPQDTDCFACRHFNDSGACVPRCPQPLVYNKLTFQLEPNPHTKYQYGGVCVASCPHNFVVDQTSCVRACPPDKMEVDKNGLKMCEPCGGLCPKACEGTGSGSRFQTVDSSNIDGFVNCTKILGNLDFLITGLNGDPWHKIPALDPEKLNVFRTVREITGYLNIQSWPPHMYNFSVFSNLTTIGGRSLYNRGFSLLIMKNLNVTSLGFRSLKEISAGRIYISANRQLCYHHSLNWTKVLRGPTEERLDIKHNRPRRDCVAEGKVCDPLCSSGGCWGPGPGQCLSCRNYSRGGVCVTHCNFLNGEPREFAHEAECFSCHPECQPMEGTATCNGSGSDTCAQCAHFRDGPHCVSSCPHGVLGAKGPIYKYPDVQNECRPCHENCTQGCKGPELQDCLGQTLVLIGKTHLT
T3 sequence (G7PIG5 entry or part of it): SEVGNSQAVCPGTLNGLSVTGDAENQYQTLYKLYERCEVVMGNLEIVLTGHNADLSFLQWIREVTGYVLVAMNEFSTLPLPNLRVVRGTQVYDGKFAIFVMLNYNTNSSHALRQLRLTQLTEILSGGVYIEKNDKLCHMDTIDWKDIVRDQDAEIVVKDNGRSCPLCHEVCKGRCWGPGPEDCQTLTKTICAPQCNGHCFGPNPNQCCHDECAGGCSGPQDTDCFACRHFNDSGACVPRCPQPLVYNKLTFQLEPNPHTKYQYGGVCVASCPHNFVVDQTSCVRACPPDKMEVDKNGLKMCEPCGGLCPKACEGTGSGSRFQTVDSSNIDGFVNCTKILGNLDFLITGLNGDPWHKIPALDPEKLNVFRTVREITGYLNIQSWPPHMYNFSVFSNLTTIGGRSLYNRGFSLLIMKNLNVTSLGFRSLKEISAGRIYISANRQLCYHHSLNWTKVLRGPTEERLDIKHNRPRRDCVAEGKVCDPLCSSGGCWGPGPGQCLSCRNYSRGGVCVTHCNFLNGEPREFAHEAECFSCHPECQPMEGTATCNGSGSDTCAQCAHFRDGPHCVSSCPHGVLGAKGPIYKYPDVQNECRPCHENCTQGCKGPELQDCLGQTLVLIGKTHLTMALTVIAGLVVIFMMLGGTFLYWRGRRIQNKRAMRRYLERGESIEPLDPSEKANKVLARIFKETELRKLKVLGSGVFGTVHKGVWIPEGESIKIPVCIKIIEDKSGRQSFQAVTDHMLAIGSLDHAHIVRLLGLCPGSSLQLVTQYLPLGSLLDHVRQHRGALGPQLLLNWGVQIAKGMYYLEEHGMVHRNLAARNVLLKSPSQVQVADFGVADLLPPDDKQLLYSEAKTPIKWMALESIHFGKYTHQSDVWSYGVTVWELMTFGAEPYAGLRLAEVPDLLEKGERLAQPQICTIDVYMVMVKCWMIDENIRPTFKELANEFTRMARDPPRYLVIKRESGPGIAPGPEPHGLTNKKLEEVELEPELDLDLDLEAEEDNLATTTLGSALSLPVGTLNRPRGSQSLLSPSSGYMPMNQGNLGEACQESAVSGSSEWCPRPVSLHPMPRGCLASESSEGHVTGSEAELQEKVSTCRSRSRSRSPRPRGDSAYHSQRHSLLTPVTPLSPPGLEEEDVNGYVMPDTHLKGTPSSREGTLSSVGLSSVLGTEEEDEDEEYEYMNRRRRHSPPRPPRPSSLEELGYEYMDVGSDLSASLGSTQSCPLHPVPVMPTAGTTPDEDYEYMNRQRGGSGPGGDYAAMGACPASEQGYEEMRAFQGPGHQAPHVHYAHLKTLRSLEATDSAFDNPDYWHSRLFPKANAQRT

B1: patritumab (antibody, V domains shown)
VH: QVQLQQWGAGLLKPSETLSLTCAVYGGSFSGYYWSWIRQPPGKGLEWIGEINHSGSTNYNPSLKSRVTISVETSKNQFSLKLSSVTAADTAVYYCARDKWTWYFDLWGRGTLVTVSS
VL: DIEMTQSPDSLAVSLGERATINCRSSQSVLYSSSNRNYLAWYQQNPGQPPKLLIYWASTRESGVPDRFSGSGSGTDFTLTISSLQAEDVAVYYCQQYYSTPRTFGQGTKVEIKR
B1: the dissociation constant (Kd) with human HER3-ECD-His [1] is 0.869 nM; with cynomolgus HER3-ECD-His [2], 2.34 nM; with human HER3-ECD-His [3], 1.33 nM; in the experiment with cynomolgus HER3-ECD-His [4], 1.92 nM. In addition, the koff with human HER3-ECD-His [1] was found to be 0.000224 s⁻¹; in the experiment with cynomolgus HER3-ECD-His [2], 0.000306 s⁻¹; with human HER3-ECD-His [3], 0.000296 s⁻¹; with cynomolgus HER3-ECD-His [4], 0.000371 s⁻¹. Also, the kon is 258000 M⁻¹ s⁻¹ in the experiment with human HER3-ECD-His [1], 131000 M⁻¹ s⁻¹ in the experiment with cynomolgus HER3-ECD-His [2], 222000 M⁻¹ s⁻¹ with human HER3-ECD-His [3] and 194000 M⁻¹ s⁻¹ with cynomolgus HER3-ECD-His [4].

B2: cHE4-G1W (antibody, human IgG1, V domains shown)
VH: EVQLVESGGGLVKPGGSLKLSCAASGFTFSSYVMSWVRQTPEKRLEWVATISDGDSSTYYPDNVKGRFTISRDNAKNNLFLQMSHLKSEDTAMYFCARDKGHGYDEGAFVYWGQGTLVTVSA
VL: DIQMTQSPASLSASVEETVTITCRASENIYSYLAWYQQKQGKSPQLLVYNAKTLAEGVPSRFSGSGSGTEFSLKINSLQPEDFGSYYCQNHYGTPYTFGGGTKLEIKQ
notes: also called chimeric HE4 antibody; cHE4-G1W4; not shown: human IgG1 heavy chain constant region, GenBank AXN93653.1; human kappa light chain constant region, GenBank AWK57456.1
For B2, the Kd in the experiment with human HER3-ECD-His [1] is 0.409 nM; with cynomolgus HER3-ECD-His [2] it was 0.31 nM; with human HER3-ECD-His [3], 0.233 nM; in the experiment with cynomolgus HER3-ECD-His [4], 0.227 nM. The koff with human HER3-ECD-His [1] is 0.000234 s⁻¹; in the experiment with cynomolgus HER3-ECD-His [2], 0.000116 s⁻¹; with human HER3-ECD-His [3], 0.000112 s⁻¹; with cynomolgus HER3-ECD-His [4], 9.63e-05 s⁻¹. Also, the on-rate (kon) in the experiment with human HER3-ECD-His [1] was 573000 M⁻¹ s⁻¹; with cynomolgus HER3-ECD-His [2], 374000 M⁻¹ s⁻¹; with human HER3-ECD-His [3], 482000 M⁻¹ s⁻¹; with cynomolgus HER3-ECD-His [4], 425000 M⁻¹ s⁻¹. Further, in [5], the “EC50 fold against patritumab” value amounted to 2 fold.

B3: hHE4-G1W (antibody, human IgG1, V domains shown)
VH: QVQLVESGGGLVKPGGSLRLSCAASGFTFSSYVMSWVRQAPGKGLEWVATISDGDSSTYYADSVKGRFTISRDNAKNSLYLQMNSLRAEDTAVYYCARDKGHGYDEGAFVYWGQGTLVTVSS
VL: DIQMTQSPSSLSASVGDRVTITCRASENIYSYLAWYQQKPGKAPKLLIYNAKTLAEGVPSRFSGSGSGTDFTLTISSLQPEDFATYYCQNHYGTPYTFGQGTKLEIKR
notes: Humanized from cHE4-G1W; also called humanized HE4 antibody; not shown: human IgG1 heavy chain constant region; human light chain constant region
As for B3, the “KD fold lower than patritumab” value in the experiment with human HER3-ECD-His [6] and in the experiment with cynomolgus HER3-ECD-His [7] was about 10 fold in each case. In addition, the dissociation constant (Kd) worked out at 0.199 nM in the experiment with human HER3-ECD-His [3] and 0.208 nM in the experiment with cynomolgus HER3-ECD-His [4]. Also, the koff with human HER3-ECD-His [3] came to 9.84e-05 s⁻¹; with cynomolgus HER3-ECD-His [4] it was 9.11e-05 s⁻¹. For the same molecule, the on-rate (kon) turned out to be 495000 M⁻¹ s⁻¹ with human HER3-ECD-His [3] and 439000 M⁻¹ s⁻¹ in the experiment with cynomolgus HER3-ECD-His [4]. Besides, the binding result with Human EGFR-ECD-His, with Human HER2-ECD-His and in the experiment with Human HER4-ECD-His was “no binding (tested: 25 nM)” in each case.

B4: hHE4-G1W-DXd (antibody, V domains shown)
VH: B3 VH
VL: B3 VL
modifications: maleimide-GGFG-DXd conjugated to cysteines of reduced interchain disulfide bonds; antibody-to-DXd ratio 1:8
notes: not shown: human IgG1 heavy chain constant region; human light chain constant region
As to B4, the binding result with human HER3 on cells is given as “binds”.

B5: cHE6-G1W (antibody, human IgG1, V domains shown)
VH: EVQLQQSGPDLVKPGTSVKMSCKASGYTFTDYYMHWVRQSHGKSLEWIGYINPNNGDAIYNQKFKGKATLTVNKSSTTAYMALRSLTSEDSAVYFCATYDYGGDFYFDVWGTGTTVTVSS
VL: DIELTQSPALMSASPGEKVTMTCSASSSVSYMYWYQQKPRSSPKPWIYLTSNLASGVPARFSGSGSGTSYSLTISSMEAEDAATYYCQQWSRNPLTFGAGTKLELKR
notes: also called chimeric HE6 antibody; not shown: human IgG1 heavy chain constant region, GenBank AXN93653.1; human kappa light chain constant region, GenBank AWK57456.1
For the molecule B5, in the experiment with human HER3-ECD-His [1], binding was characterised by a dissociation constant (Kd) of 0.00114 nM, the koff turned out to be 5.11e-07 s⁻¹ and the kon is 450000 M⁻¹ s⁻¹. Also, in the experiment with cynomolgus HER3-ECD-His [2], the dissociation constant Kd was 1.25 nM, the dissociation rate constant (koff) was determined as 0.000706 s⁻¹ and the kon worked out at 565000 M⁻¹ s⁻¹.

B6: cHE7-G1W (antibody, human IgG1, V domains shown)
VH: B5 VH with N73D
VL: B5 VL
notes: also called chimeric HE7 antibody; not shown: human IgG1 heavy chain constant region, GenBank AXN93653.1; human kappa light chain constant region, GenBank AWK57456.1
In the experiment with human HER3-ECD-His [1], B6 gave a dissociation constant Kd of 0.00131 nM, a koff of 5.57e-07 s⁻¹ and an on-rate (kon) of 425000 M⁻¹ s⁻¹. In the experiment with cynomolgus HER3-ECD-His [2], this molecule showed an equilibrium dissociation constant (Kd) of 1.36 nM, a koff of 0.000912 s⁻¹ and an association rate constant (kon) of 672000 M⁻¹ s⁻¹.

B7: cHE1-G1W (antibody, human IgG1, V domains shown)
VH: EVKLQESGPGLVKPSQSLSLTCSVTGYSITSGYYWNWIRQFPGNKLEWMGYISYDGSNNYNPSLKNRISITRDTSKNQFFLNLNSVTTEDTATYYCARVDWDGDAMDYWGQGTSVTVSS
VL: DIVLTQSPASLAVSLGQRATISCRASESVDNYGIRLMHWYQQKSGQPPKLLIHRASNLESGIPARFSGSGSRTDFTLTINPVETDDVATYYCQQSNKDPFTFGSGTKLEIKR
notes: also called chimeric HE1 antibody; not shown: human IgG1 heavy chain constant region, GenBank AXN93653.1; human kappa light chain constant region, GenBank AWK57456.1
In the experiment with human HER3-ECD-His [1], B7 came in with a dissociation constant Kd of 4.88 nM, a koff of 0.00356 s⁻¹ and a kon of 728000 M⁻¹ s⁻¹. In the experiment with cynomolgus HER3-ECD-His [2], this molecule showed a Kd of 4.01 nM, a koff of 0.0017 s⁻¹ and a kon of 423000 M⁻¹ s⁻¹.

B8: cHE5-G1W (antibody, human IgG1, V domains shown)
VH: B7 VH with K3Q, N82K, R98S, V99Y, W101Y, A105W, M106F, D107A, S114L, S119A
VL: B7 VL with N31H, I34S, R35S, L36F, S44P, H53Y, L58P, F100P, S104G
notes: also called chimeric HE5 antibody; not shown: human IgG1 heavy chain constant region, GenBank AXN93653.1; human kappa light chain constant region, GenBank AWK57456.1
In the experiment with human HER3-ECD-His [1], B8 returned a Kd of 3.56 nM, a dissociation rate constant (koff) of 0.00253 s⁻¹ and an association rate constant (kon) of 710000 M⁻¹ s⁻¹. Further, in the experiment with cynomolgus HER3-ECD-His [2], the dissociation constant (Kd) was found to be 3.58 nM, the koff stood at 0.00154 s⁻¹ and the kon stood at 429000 M⁻¹ s⁻¹.

B9: cHE2-G1W (antibody, human IgG1, V domains shown)
VH: B7 VH with N82K, V99M
VL: B7 VL with R35S, S44P, H53Y, F100P, S104A, I110L
notes: also called chimeric HE2 antibody; not shown: human IgG1 heavy chain constant region, GenBank AXN93653.1; human kappa light chain constant region, GenBank AWK57456.1
In the experiment with human HER3-ECD-His [1], B9 returned a Kd of 3.57 nM, a koff of 0.00308 s⁻¹ and a kon of 861000 M⁻¹ s⁻¹. Besides, in the experiment with cynomolgus HER3-ECD-His [2], the Kd was found to be 3.25 nM, the koff worked out at 0.00165 s⁻¹ and the on-rate constant (kon) stood at 507000 M⁻¹ s⁻¹.
